Results published in publication PMC10397247.
Read-outs that look alike come from different tables or passages of the source. Each block holds one binder with its values, some of them ahead of it.

Tests used:
Experiment in all cases: two-hybrid library CCmax;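 note: natural log of median RNA to DNA barcode read ratio; higher means stronger binding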
4H337-AA = biological target: T1, 4H337-AA
T1 chain: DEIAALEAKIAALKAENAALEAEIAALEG

4H_APH = biological target: T2, 4H_APH; details: mean of both orientations
T2 chain: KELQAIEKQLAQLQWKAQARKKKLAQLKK

4H3625-AA = biological target: T3, 4H3625-AA; details: mean of both orientations
T3 chain: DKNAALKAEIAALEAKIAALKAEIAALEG

O14-AA = biological target: T4, O14-AA; details: mean of both orientations
T4 chain: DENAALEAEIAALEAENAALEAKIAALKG

GCN2_T = biological target: GCN2_T
4H3590-AA = biological target: T5, 4H3590-AA; details: mean of both orientations
T5 chain: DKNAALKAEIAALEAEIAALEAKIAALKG

4H4038-AA = biological target: T6, 4H4038-AA; details: mean of both orientations
T6 chain: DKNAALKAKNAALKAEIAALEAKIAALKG

4H451-AA = biological target: T7, 4H451-AA; details: mean of both orientations
T7 chain: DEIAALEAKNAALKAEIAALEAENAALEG

O13-AA = biological target: T8, O13-AA; details: mean of both orientations
T8 chain: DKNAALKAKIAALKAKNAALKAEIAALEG

4H510-AA = biological target: T9, 4H510-AA; details: mean of both orientations
T9 chain: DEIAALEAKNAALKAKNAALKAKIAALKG

4H384-AA = biological target: T10, 4H384-AA
T10 chain: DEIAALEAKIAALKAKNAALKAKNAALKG

O11-AA = biological target: T11, O11-AA; details: mean of both orientations
T11 chain: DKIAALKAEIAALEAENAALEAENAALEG

4H_BCR = biological target: T12, 4H_BCR; details: mean of both orientations
T12 chain: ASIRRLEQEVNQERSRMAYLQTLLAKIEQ

4H3905-AA = biological target: T13, 4H3905-AA; details: mean of both orientations
T13 chain: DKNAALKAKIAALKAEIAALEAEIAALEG

4H3587-AA = biological target: T14, 4H3587-AA
T14 chain: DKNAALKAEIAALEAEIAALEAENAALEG

4H_GCN4 = biological target: 4H_GCN4
Sequence of 4H_GCN4 (chain, as listed by the source): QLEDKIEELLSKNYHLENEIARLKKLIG

4H43-AA = biological target: T15, 4H43-AA; details: mean of both orientations
T15 chain: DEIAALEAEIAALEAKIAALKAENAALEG

4H3049-AA = biological target: T16, 4H3049-AA
T16 chain: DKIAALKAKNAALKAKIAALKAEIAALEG

4H3414-AA = biological target: T17, 4H3414-AA; details: mean of both orientations
T17 chain: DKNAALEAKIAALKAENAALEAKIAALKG

4H3939-AA = biological target: T18, 4H3939-AA; details: mean of both orientations
T18 chain: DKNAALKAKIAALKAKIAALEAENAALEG

4H432-AA = biological target: T19, 4H432-AA; details: mean of both orientations
T19 chain: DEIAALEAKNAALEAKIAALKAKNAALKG

4H3094-AA = biological target: T20, 4H3094-AA; details: mean of both orientations
T20 chain: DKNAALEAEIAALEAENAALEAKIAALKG

4H3782-AA = biological target: T21, 4H3782-AA; details: mean of both orientations
T21 chain: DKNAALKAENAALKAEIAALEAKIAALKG

4H32-AA = biological target: T22, 4H32-AA
T22 chain: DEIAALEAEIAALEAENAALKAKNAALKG

4H483-AA = biological target: T23, 4H483-AA; details: mean of both orientations
T23 chain: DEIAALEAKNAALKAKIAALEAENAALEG

4H380-AA = biological target: T24, 4H380-AA; details: mean of both orientations
T24 chain: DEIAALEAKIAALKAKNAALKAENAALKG

4H3629-AA = biological target: T25, 4H3629-AA; details: mean of both orientations
T25 chain: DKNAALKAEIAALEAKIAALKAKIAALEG

4H3619-AA = biological target: T26, 4H3619-AA; details: mean of both orientations
T26 chain: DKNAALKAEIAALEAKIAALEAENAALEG

4H3595-AA = biological target: T27, 4H3595-AA; details: mean of both orientations
T27 chain: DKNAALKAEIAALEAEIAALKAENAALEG

4H3129-AA = biological target: T28, 4H3129-AA; details: mean of both orientations
T28 chain: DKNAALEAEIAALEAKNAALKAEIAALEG

4H3449-AA = biological target: T29, 4H3449-AA; details: mean of both orientations
T29 chain: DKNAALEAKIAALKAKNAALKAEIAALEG

4H3969-AA = biological target: T30, 4H3969-AA; details: mean of both orientations
T30 chain: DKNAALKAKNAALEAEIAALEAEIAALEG

4H341-AA = biological target: T31, 4H341-AA; details: mean of both orientations
T31 chain: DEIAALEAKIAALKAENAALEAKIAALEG

4H63-AA = biological target: T32, 4H63-AA; details: mean of both orientations
T32 chain: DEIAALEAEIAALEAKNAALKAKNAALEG

4H3777-AA = biological target: T33, 4H3777-AA; details: mean of both orientations
T33 chain: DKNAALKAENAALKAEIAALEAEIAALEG

4H464-AA = biological target: T34, 4H464-AA; details: mean of both orientations
T34 chain: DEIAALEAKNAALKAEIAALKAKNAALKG

4H324-AA = biological target: T35, 4H324-AA; details: mean of both orientations
T35 chain: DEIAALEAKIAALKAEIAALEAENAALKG

4H3915-AA = biological target: T36, 4H3915-AA; details: mean of both orientations
T36 chain: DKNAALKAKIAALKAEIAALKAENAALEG

4H446-AA = biological target: T37, 4H446-AA; details: mean of both orientations
T37 chain: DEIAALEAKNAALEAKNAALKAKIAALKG

4H3974-AA = biological target: T38, 4H3974-AA; details: mean of both orientations
T38 chain: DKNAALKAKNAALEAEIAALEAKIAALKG

- interaction score (4H337-AA): -0.119
- interaction score (4H_APH): -1.22
- interaction score (4H3625-AA): -0.713
- interaction score (O14-AA): 1.85
- interaction score (GCN2_T): -1.48
- interaction score (4H3590-AA): 0.707
- interaction score (4H4038-AA): 2.08
- interaction score (4H451-AA): -0.516
- interaction score (O13-AA): 0.869
- interaction score (4H510-AA): 1.23
- interaction score (4H384-AA): 1.88
- interaction score (O11-AA): -0.88
- interaction score (4H_BCR): -0.845
- interaction score (4H3905-AA): -0.0231
- interaction score (4H3587-AA; mean of both orientations): -1.2
- interaction score (4H_GCN4): -1.01
- interaction score (4H43-AA): -0.783
Binder: DEIAALEAKIAALKAENAALEAEIAALEG [4H337-AA]

- interaction score (4H3049-AA): -0.619
- interaction score (4H337-AA; mean of both orientations): 1.59
- interaction score (4H3414-AA): -0.414
- interaction score (4H3939-AA): -0.638
- interaction score (4H432-AA): -0.00195
- interaction score (4H3094-AA): 1.63
- interaction score (4H3782-AA): 1.57
- interaction score (4H_APH): -1.8
- interaction score (4H32-AA): 0.0606
- interaction score (4H483-AA): -1.48
- interaction score (4H3625-AA): -0.0279
- interaction score (4H380-AA): -1.68
- interaction score (O14-AA): 1.66
- interaction score (4H3629-AA): -0.842
- interaction score (4H3619-AA): -0.754
- interaction score (GCN2_T; mean of both orientations): -0.776
- interaction score (4H3595-AA): -1.01
- interaction score (4H3129-AA): -1.06
- interaction score (4H3449-AA): -1.67
- interaction score (4H3590-AA): 1.4
- interaction score (4H4038-AA): 1.1
- interaction score (4H451-AA): -1.18
- interaction score (O13-AA): -1.55
- interaction score (4H510-AA): -1.55
- interaction score (4H3969-AA): -0.09
- interaction score (4H341-AA): 0.355
- interaction score (4H384-AA; mean of both orientations): -1.42
- interaction score (4H63-AA): -1.15
- interaction score (4H3777-AA): -0.0348
- interaction score (O11-AA): 0.334
- interaction score (4H464-AA): 0.452
- interaction score (4H_BCR): -2.02
- interaction score (4H324-AA): -0.645
- interaction score (4H3915-AA): -1.52
- interaction score (4H3587-AA): -0.69
- interaction score (4H_GCN4): -0.802
- interaction score (4H43-AA): 1.67
- interaction score (4H446-AA): -0.416
- interaction score (4H3974-AA): 1.52
Binder: DKIAALKAKNAALKAKIAALKAEIAALEG [4H3049-AA]
